Consider 2 sequences from publication PMC4570336.

In series [1] the test system is Inactivated H2N2 influenza virus (whole virion) (Avian influenza virus H2N2 (strain not stated)). The conditions noted are these: 5'-biotin; scale: ohm.
The test system of series [2] is Inactivated H7N2 avian influenza virus (whole virion) (Avian influenza virus H7N2 (strain not stated)). The conditions noted are these: 5'-biotin; scale: ohm.
The subject of series [3] is Inactivated H1N1 influenza virus (whole virion) (Avian influenza virus H1N1 (strain not stated)). The conditions noted are these: 5'-biotin; scale: ohm.
In series [4] the test system is Inactivated H5N1 avian influenza virus (whole virion) (Avian influenza virus H5N1 (Scotland/59)). The series can be described thus: SPR. The conditions noted are these: 5'-biotin; cited from earlier work.
The test system is the same in series [5].

Read-outs that look alike come from different tables or passages of the source.

For “GTGTGCATGGATAGCACGTAACGGTGTAGTAGATACGTGCGGGTAGGAAGAAAGGGAAATAGTTGTCCTGTTG [H5N1 aptamer]”, the binding signal in series [1], in series [2] and in series [3] was -2000 in each case. Further, in series [4], the Kd was 4.65 nM. In addition, the binding signal (ohm (impedance increase)) in series [5] (5'-biotin) was determined as 61000.

With “CCGAATTCGAAGGACAAGAGGCGAAAAGATTTAAAGTAATCAAAGACTGAGCAACTCTTATCTTTTATGCTACGTCCCGC [control sequence (non-target aptamer)]”, in series [5], the binding signal (ohm (impedance increase)) was 282.
